The assay addresses Orai1 V102A (human, UniProt Q96D31-1 1-301, V102A). Briefly: cell-based or functional assay.

1 molecule from PMC8558294, “Defects in the STIM1 SOARα2 domain affect multiple steps in the CRAC channel activation cascade” (Cellular and Molecular Life Sciences: CMLS, 2021) can be followed below.

Sequence of Orai1 V102A (Q96D31 whole entry V102A): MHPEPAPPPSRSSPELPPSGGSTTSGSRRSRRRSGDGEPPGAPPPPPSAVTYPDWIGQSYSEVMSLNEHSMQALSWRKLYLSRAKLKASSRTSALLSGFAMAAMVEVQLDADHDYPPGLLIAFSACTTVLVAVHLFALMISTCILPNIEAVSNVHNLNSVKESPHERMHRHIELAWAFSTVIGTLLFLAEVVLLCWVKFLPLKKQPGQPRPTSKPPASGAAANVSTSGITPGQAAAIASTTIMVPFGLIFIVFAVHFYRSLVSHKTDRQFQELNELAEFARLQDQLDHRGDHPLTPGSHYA

B1: STIM1 Δα2 (STIM1 Δ393-398), CFP/YFP-labeled (natural protein, human, UniProt Q13586-1 23-685, looked up)
chain: LSHSHSEKATGTSSGANSEESTAAEFCRIDKPLCHSEDEKLSFEAVRNIHKLMDDDANGDVDVEESDEFLREDLNYHDPTVKHSTFHGEDKLISVEDLWKAWKSSEVYNWTVDEVVQWLITYVELPQYEETFRKLQLSGHAMPRLAVTNTTMTGTVLKMTDRSHRQKLQLKALDTVLFGPPLLTRHNHLKDFMLVVSIVIGVGGCWFAYIQNRYSKEHMKKMMKDLEGLHRAEQSLHDLQERLHKAQEEHRTVEVEKVHLEKKLRDEINLAKQEAQRLKELREGTENERSRQKYAEEELEQVREALRKAEKELESHSSWYAPEALQKWLQLTHEVEVQYYNIKKQNAEKQLLVAKEGAEKIKKKRNTLFGSSSLDDVDHKILTAKQALSEVTAALRERLHRWQQIEILCGFQIVNNPGIHSLVAALNIDPSWMGSTRPNPAHFIMTDDVDDMDEEIVSPLSMQSPSLQSSVRQRLTEPQHGLGSQRDLTHSDSESSLHMSDRQRVAPKPPQMSRAADEALNAMTSNGSHRLIEGVHPGSLVEKLPDSPALAKKALLALNHGLDKAHSLMELSPSAPPGGSPHLDSSRSHSPSSPDPDTPSPVGDSRALQASRNTRIPHLAGKKAVAEEDNGSIGEETDSSPGRKKFPLKIFKKPLKK
B1: the “Vrev [mV] of Orai1 V102A currents, whole-cell patch clamp in HEK293 cells” value came out at 31.6 mV.
